Results as given in the DeepSol protein solubility set.

assay: soluble on expression in E. coli; label from the status in PepcDB or PDB records

Soluble on expression in E. coli, not soluble:
MGSDKIHHHHHHMLAIIKQFFAKSHGTTVSDSRFLALNHWLSNTFGEPLSPVLISGDASFRRYFRAVHQGRAMVIMDTPVALIPTEPFVAVRNAYAASGLPVPGIIAKDDEQGFMALEDFGDVQLLSLLNSQSVRHWYPRALALLPGIAAVTQTVLGPLPDYDDAFVRRELGIFTEWLLGTHLKLELTSDEEAIIADAFDMLTQNALEQPKVGMHRDFHSRNLMVVDGELKLLDFQDAVLGPVTYDAVSLLRDCYIRWSEDLVDDMLVEFFVLAHEHALVPPHTDMVQFRRWFELMGLQRHIKAAGIFARLNHRDGKAGYLKDIPLTMHYIRDVAVRYKELGDFAQFIMRRVMPALEAGA, MGSDKIHHHHHHMLDDIKKTLWAAADKLRANVDAAEYKHLVLGLIFLKFVSDTFAARRAELERRFVDVNDDYFLHDADADFIAEELEERDYYIEVNVFWVPEPARWEGLRANAKQANIGKQIDDALDAIEKENPSLKGILDKRYARAPLPDGKLGELVDLISTIGFGEDQSKARDILGQVYEYFLGQFASAEGKKGGQFYTPQSIVNTLVAVLDPHQGKVYDPCCGSGGMFVQSEKFIEAHGGKLGDVSIYGQESNPTTWRLAAMNLAIRGIDFNLGREPGDTFTKNQHSDLRADYILANPPFNISDWWHGSLEGDPRWVYGNPPQGNANYAWLQHMLYHLKPTGRAGIVLANGSMSSSQNTEGDIRRAMVDADVVEVMVALPGQLFFNTQIPACLWFLTKQKTARKGEVLFIDARKLGKMISRVQSELDQAAIDRIANTAKAWRGEDMTGVEGFEDGYQDIPGFCRSVPLSEIAEHGHVLTPGRYVGAEEVEDCDDAFADKMTMLTEKLAEQMAKGAELDQLIRQKLGGLGYEF, MGSDKIHHHHHHMLEFVNVSKSFWTGTQRKIILDKVSFTVELGTSLGILAPNGTGKTTLINMMAGLEKPDEGEIYRGCKISFPLGFMGGVINRLSAMENCRYIARLYGLDPDYVESYCRWLCGLNEYFDQPLGTYSAGMKSRFSFALMLALDFDIYLIDEGMPSSTDVEFNRKAGIILQERLETTTIVIVSHQPRTLEKFANTAAVLMNGQLHMFETLEEAKQLYDYETQG, MGSDKIHHHHHHMLEQKINVDNTALFEQLWGWTNELREKIDARFELHSDPSTENFKKYSALIGEAHGSVNTFSGPEIDWLVHSWLREPKSGFCNMHLTVWLKSQIHVPHLAIVFATVPELFFFIDYVSRTDLFTDLDYLDRYYEPVNQTYLAFLKDSRFQQYISKTLYIRQVQSHTSLCYTSPVTEETLARIHTLAHEMIDRWLGWVDEAEPVAESERDALSERDLFVRRTVAERDPDNQIAVRLFGAEMTDKLVRSLWGGDRIL, MGSDKIHHHHHHMLEVPVDRPVEALTIALLRDVKHACAQLGAKFVLAGATARDILMWHLHDIRAPVATRDVDVAVCAVSWESHDALIELLVQTQRFRRHSKQQQKLLFKRSAEDYEGELDIVPFGQIEGPPGEIHWPPDGDIVMTVLGFQEAVDTAQPVSIGEGLVVPVVTLPAFVLLKLIAWKDRRLMKNTDSADLLFVLRNYIDAGNIERTYEQATDLLKAANFDAGLAAAGLLGRDVRGLAYPDTRAALRALLQSADAYETLRLDLQARAAMLLGGFIDDSDALLAAFARELLTEENGSLNGTGPQVGSTGARA, MGSDKIHHHHHHMLGVCYYPEHWGTEKVEEDFRRMKELGIEYVRIGEFAWSRIESERGKFNWDWLDKTLELAEKMGLKIVLGTPTATPPKWLIDEHPEILPVDKDGRVKNFGSRRHYCFSSPVYREEVKRIVTIIVKRYGKHPAVAGWQTDNEYGCHDTVRCYCPRCKKAFQKWLERKYEGDIKKLNEAWGTVFWSQEYRSFDEIELPNLTPADPNPSHLLDYYRLASDQVVEFNKLQVEIIREYSPGRFITHNFMSGFTDFDHYKLSKDLDFATWDNYPLGHTLVFLRMKGETKNPFDRVGHPDIISFSHDLYRGVGRGRFWVMEQQAGPVNWAPYNLWPAKGAVRLWTWQAFAHGAEVVSYFRWRQAPFAQEQMHSGLLAPDSAPYPGYHEVKQVFEELKNIDINEPVESEVALVFDYETAWVFSIQPHGEGVNYIDLVFRFYSALRRLGLNVDIVPPGSSLDGYKMIVVPSLAIVKEEVLDTFKKYDGLLVLGPRSGSKTETFQIPPEMPPGLLKEIIPVEVRQVESLGDNVETLVWNGKEYPVSIWREDVDPTITEVIARFKDGFGAIFRKENVFYLAFWPNGDFLVDFFEALSKESGIETKRMPEGVRIQRRGEYVFSFNFTSEEVDLEIPTKVQIVLGDQKIPPYGLLIWKENER, MGSDKIHHHHHHMLHATAWRSALFTPTENSATSRDRADCGGIGGMSAAILLSRQGIQVDLVELNPLWAPGGAGITISGPTLRGLREVGVADEVLASGGFWNAVDVCDANSNLTVTVPIAPAVGADELPGVAGIMRTTLAEILGRATRKADTNARLGVTFETLTQDAEGVEVSFNDGSRARYDLVIGADGINSPVRKYVKPEFPGPPFTGQRSWRAVVPRLQENSLMYMGKTTKAGLNPISQTECYLFVLDKREGMDFIAPEQWPMMLAELLEEFGGAVGEFRRGPLDGSLMNHRLLYRPLAGHMINGPWHKGRIVLLGDAVHATTPHLASRAGIAVEGAIVLSEELARRRSLEGAFIAYAGRHYDRARLVVSASGRLGEIERESGSREEHTRIMIETQQALRAPI, MGSDKIHHHHHHMLHQLTVLFKDHLSTDPTVYCTDKYTVYQLADGLRFGIENTILTPRELDLLNLLVERVVTSESDQIVTWRRRLEQPSSEEAHPFRMIHFLFEQLDVRTGEDLQQLLTSFFHPSSWIIPLTSNRLVVIEREDSVSENDLHDFFTALQSDFLMDGKVLIGQQRQSGDLAAQFRLEQAALRELPLLHIERFLPALMRLTLLSNEVRDDLIERFITPLERESRETIDAFCRANLNVSLTAKHLFLHRNSLQYRLDRLTEQTEIDIRSFEGAMFLYTLLLVA, MGSDKIHHHHHHMLICATCAVERDEPAPELCPICTDERQYVPEEGQKWLTLDGLAQQGQQTVLRENEPGLIGIRTEPKVGIGQTAQLVVTHEGSLLWDPVGYVDDSAVNAALERGPVLAIAASHPHMFGVQVEWSHRLGGVPVLVADADRRWLGRNDPVIEYWSGSHTIAEGLTLHQTGGHFPGSAVVHWAAGAAGRGVLLTGDSVYPNPDRRSISFMRSYPNHLPLSGAVALRIAAQLGELEFDRIYGNFNNVIASGAKAALHDSAQRHAAWARGDFDHLT, MGSDKIHHHHHHMLIFQYDFKIEFYNTVNSKNSIGGRLSGLRPRVVITTQNGAPDLNIFIQNTYSENNLITSKKAKLQIFNVPLDFSDFKTADIVKIYYKKFSDQQDYQFIMAGYLGAPVERIGGAENFSFECELYLLSRATFLERKFEYKNFKGSTIADAINYAFKDKAIFFMNELEKTKVIKESFACNSPKGLIEYLRRQGYVDAVIVDIGNPGQDVDLKFIFMNFEQFGAAEYKRLEDYGLLFVPQKDALGFKSGLSLYQAQVMFTHNIKIADNLSFKDRHGNTLDCKVKNTSARLSSTRECVLNLELYSKGEMYYAK, MGSDKIHHHHHHMLIISDAHANIHPLKYVIQREKFDKIVFCGDAVDYGPNPGETLDLLKENADVMVSGNHDYAAAYSVDCRCGEENHELSVFTRENITLKKLGKNDISFLRSLPNRMDMEIDGMKFQVMHGSPRDELYGYMYPWSVQDHLRSMLGSPLDPANYVVGHTHYQFLIRYAGNLVINPGSIGQPRDNPMPSYAVYDSSRNSVEFPRFDYDRSKLKEDIRSIISDQEILSGLYRLFSL, MGSDKIHHHHHHMLILRARWWTNMCLICQRIDLIKKEENPYFVKELETGYLVVGDHQYFEGYSLFLAKEHVSELHHLKKETRLRFLEEMSLVQEAVAKAFAAEKMNIELLGNGDAHLHWHLFPRRTGDMNGHGLKGRGPVWWVPFEEMTAETCQAKPDEIKRLVKRLSSEVDKLLEIKE, MGSDKIHHHHHHMLKEAISYSIADESVRIVQVTDPHLFADPEAQLLGVNTSKSLAAVLNTIRAVNYPAHLLLATGDLSQDYSPESYRQFVSAVAPLNLPCHYLPGNHDDPRIMFLHMQGERVFGQQRILVGKWQILMLDSTVRGKPGGHMGEGQFELIEQAIAAHPEHHTLLVMHHNPILVNCAWLDQHCMDNGAEFLRRVAQYPQVKALLWGHVHQQLDTYYDGPHRALQLMATPSTCIQFKPQSPYFALDGLQPGYRLLELKADGSISTNVYRVPGNLFSPDKDSSGY, MGSDKIHHHHHHMLKMPSLKAVKSFVAAAKYQSFTRAAEALCVTQAAISRQIRELEAYMGVELFKRVGRAVELTEAGSAFFDAAQLSFVNISQAAKRVGAYKAGKSEVTLCCSAAFAALWLSPKLPGFFNDNQDIDLNLISTQNFLSMEPGVTPDIFITKFSSVHSGYRSYPLFHDVIFPVCTPRYRDEHPELATLEGLRDSALLNLSPYGRAQVAEHIDWGVWLAFHDTDIEKRTHNRPHVFSANDYNVVINMTLANQGVALGWSHLVAESLEKGALVRPIQKEVVHKDSQHYLAFKVDRESDRGCCRLRDWLLSHFA, MGSDKIHHHHHHMLLAPEDKLNERRAEYPGIEVHPLKFCSSELQAGHWKFLMGAIGNQAAYIRQLGNIMRKNRNNLSIQAIRDGIQNSSLSDSLKDLADMRLDFAEQYIDDQLNVGSLIRPGRMIVVDVRDEFIEKDEALGLFVVLLQIFSEAKYQGQSFNKLIVFDECHKYIDSPDLVKGLVETVREMRHKGTSVMIASQDPPSVPIELIQLSSQIILHKFNAPDWLKHIQKACIGLKSLTPEKLGALKPGEAFIWSSKASDNAFVSDAMKIQCRPRVTKHGGDTLTAI, MGSDKIHHHHHHMLMKGVTLRGLEVFEALAKSGSVAQAADITGLSQPAVSQQLRNLEKALGSDLVDHGRRPMVLTSAGRSFLSRTQAILSELRLAQSELTVMDLSHLPALSIGLIDDFDNDLTPRLATILADSLTQCRFKMVTASSHDIHRAMAEKDLHIGVAASTGELRTGVTEYPLVEEPFILVAPRGCITDPDDVGNQLNHLPLLRYARDQLISQQIESHLSRNKMEFDDRFEIGSHLALMAMVARRIGWAITTPLGYMRAVRFHEDIDAYALPFAGFSRRISLFAQSDWPDTVPLEVAGTVRRLTQSQMITPAINRLPWLAGQLRVIEE, MGSDKIHHHHHHMLNNYMSILSLNENDNDIKSLTKARPLASIPIAGRYRIIDFILSNLVNSGVKNIGILTQCKSRSLLDHLGSGKPWDLDRKLNGLFIFNFSGITSTLSDIEMLKSNMEYLYRSTQEKVILSSSAVICNIDFQRAAEFHEKSGKDITLIYKRTNNGKRKFLNCSVLNMDKNNNVISIGKNTGLDDVQNISLGMFIMNKKLLINILNNCIRTGFSLSLKQCIRKHMNNFTVNAYEFNGYAEYIDSVKSYYKVNMDMLNLDINREVFFKNGLIYTKVKDEAPTKYFNDSEVCNSLIANGSLIHGQIENSIIGRRVTISKGARIKNCVIMQNCTIKENVDLTNVIVDKNVIIDENTVLKGGKEFPLVIEKKSIYSEV, MGSDKIHHHHHHMLPNLKKALDGIVVCDFSWVGAGPIATNVLGQCGAEVIKIESKSRPDLLRTGGPFKDGINEGLERSGYFANRNPNKKGIALDMSHPKARAVAVRLIRKSDIVINNFRVGQMEKWGLGWEDVRKINPRIIYVTMSLQGETGPQKSYMGFGVNLNALCGLTAQACFPGERPFGTGTNYTDHVMAPSHTLFGIMAALLEREQTGEGQTVAISQLKSAISMAPTSAMTYAANGDTLGPAGLSDPNAAPHGLFTTLGYRRWIAIAVFSEDEWRALKKVMGNPAWAEDGKFGSLQSRKENEAELNEHMEAWTSRQHADKIMDELLRNGVRAGVVNDARGAIEDDHLREREFWSYLDHPVMGRTLYNRAPIRLSKTPLRMETAAPLLGQHTRDVLKGMLDYTDEEIAMLSEEKVLV
